Data set [1] addresses T1, His-APOBEC2 E100A (Mus musculus, UniProt Q9WV35 1-224, E100A).
T1 sequence: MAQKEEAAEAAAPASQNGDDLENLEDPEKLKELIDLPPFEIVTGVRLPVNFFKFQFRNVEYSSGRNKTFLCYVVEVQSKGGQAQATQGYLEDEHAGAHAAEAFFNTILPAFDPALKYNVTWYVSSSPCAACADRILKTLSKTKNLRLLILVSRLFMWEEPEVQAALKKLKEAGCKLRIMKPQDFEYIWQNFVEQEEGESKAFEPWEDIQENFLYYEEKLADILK
The data set can be described thus: MST.

Data set [2] addresses T2, His-APOBEC2 (Mus musculus, UniProt Q9WV35 1-224).
T2 sequence: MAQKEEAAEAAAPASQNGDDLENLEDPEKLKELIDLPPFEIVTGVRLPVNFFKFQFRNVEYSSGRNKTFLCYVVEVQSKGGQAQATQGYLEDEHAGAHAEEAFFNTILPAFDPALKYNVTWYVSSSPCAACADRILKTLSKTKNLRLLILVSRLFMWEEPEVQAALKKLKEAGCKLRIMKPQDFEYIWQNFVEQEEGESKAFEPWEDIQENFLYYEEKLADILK
In words: MST.

Usually Kd stands for a measure of binding affinity in units of concentration. A high value points to weaker binding.

B1: A-tract (poly-A) motif (ssDNA)
DNA: TCTCAAGAAAAAAAAAAAAAGAC
As to B1, the binding result in data set [1] is on record as “no binding”.

B2: SP/KLF motif (ssDNA)
DNA: GGCGGCGCGGCCCCGCCCCCTCCTCCGGC
For the molecule B2, in data set [2], binding was characterised by a dissociation constant (Kd) of 926 ± 243 nM. Besides, the binding result in data set [1] was “no binding”.

The values above are taken from PMC11047093.
